Experimental data reported in the DeepSol protein solubility set.

Experiment: soluble on expression in E. coli; label from the status in PepcDB or PDB records

| Sequence | soluble on expression in E. coli |
| --- | --- |
| MSLARSTPAIVILGQGSLDTARQIQRLYPDSLIHGLAERVEGADRVYHEFGATLRQLYQQDTPIIALCAAGIVIRTLAPLLLEKGAEPPVLAVAEDGSAVVPLLGGLGGVNVMAREIAAGLGVAAAITTSGELRFGTCLLNPPSGYALGDLELGKRFVSDLLGGESVRIEGAAPWLAAAKLPENDQARLTIRVGSAEREPVANELLIYPRSVLVACRGQRLAGEADSDLATHIRQALHQARIAVQSVACLLAADRDMADRALHQAAAQLGVPLRFLPAADSVAELAQQAVPQLLPPLKVGEDIAIAVASQPLDPEQIGRPRGRLAVIGLGPGAAELMVPAVKAELARANDILGYETYVRMAGPFRADQVMHCTDNREEMQRARHAFELAAQGRSVVVVSSGDPGVFAMAAAVIEALHESSDPAWHSVDLEILPGVSASLATAAQAGAPLGHDFCVLSLSDNLKPWDIIEKRLDLASQADLALAFYNPISRSRPWQLGRALEIVRQHRTPQTPVVLGRDIGRPGQTLRVITLGELTPEQVDMRTMVLVGSSTTCVFPRAGGGDWVYTPRWYGNKEGHHHHHH | soluble |
| GPGSMLRRLFTRMAPRAKNHEELMKMLREGSQVGKMAASEESGVTFRDIRTVPIGESNEAKRRRLLYQSTYRGMVEMDIILGAFARQNIETLSAPQLEEYDAVLRHFDNDLYKWLVMDVEAPAEVAQIPVFQSLHSFVRDEREKLLKCAS | soluble |
| MGSDKIHHHHHHMKLYELAMTPSARRVNIFLKELGLNEQELGLERESLNLRAGDNLSDEFKAISVNGRIPVLELDDGQTLCESVAICRYFDEIITSAHSLFGDTPLEKAQVEMWQRICELQGLFVAFQAFRNITKVYEDRERCVEAWGQESRQRVIEFLPTLEKQLGQQPFVAGQNFSIADITAYVMMSFIKHLEITPSDDQPHLTAWLTKMEQRPSIIAVNG | not soluble |
| MKLKNTLLASALLSAMAFSVNAATELTPEQAAAVKPFDRVVVTGRFNAIGEAVKAVSRRADKEGAASFYVVDTSDFGNSGNWRVVADLYKADAEKAEETSNRVINGVVELPKDQAVLIEPFDTVTVQGFYRSQPEVNDAITKAAKAKGAYSFYIVRQIDANQGGNQRITAFIYKKDAKKRIVQSPDVIPADSEAGRAALAAGGEAAKKVEIPGVATTASPSSEVGRFFETQSSKGGRYTVTLPDGTKVEELNKATAAMMVPFDSIKFSGNYGNMTEVSYQVAKRAAKKGAKYYHITRQWQERGNNLTVSADLYKLEHHHHHH | not soluble |
| MSLKIVVTKFGGSSLADSNQFKKVKGIIDSDANRKYIIPSAPGKRTNKDYKITDLLYLCNAHVKNGIPFDDVFKLISQRYTEIVSELNIDMDIAYYLEKVKKNIENGASSDYAASRGEYLNGVILAKYLNAEFIDAAEVIFFDKSGCFDEKKSYEKIKEKVLSCNKAVIPGFYGSSFNGDVKTFSRGGSDVTGSIISAGVNADLYENWTDVSGFLMADPRIVENPKTISKISYKELRELSYMGATVLHEEAIFPVKDSGIPINIKNTNKPSDPGTLILSDTHKEINLGTITGIAGKKNFTVIAIEKALLNSEVGFCRKILSILEMYGVSFEHMPSGVDSVSLVIEDCKLDGKCDKIIEEIKKQCNPDSIEIHPNMALVATVGTGMAKTKGIANKIFTALSKENVNIRMIDQGSSEINVIVGVETVDFEKAVKSIYNAFNEGHHHHHH | soluble |
| MSLKAIIYCRVSTEKTSQETSLARQKHELLTLANKHALEVVATLEERASGFSLDRPVLLECIDAFQRGQADILLCQDDTRLARGHSKIALLHQLRKLGVSIYTIRDQGELRLSEADEMVLDIVAIVEEYQRKLHNKKIKRGMKQAVKNGYRPERNIKQGVSGGRERKELPIKEIVRLRQKNLTFHEIALTLQGLGFNVSKATVHRRYQEYMDEQLHGEGHHHHHH | soluble |
| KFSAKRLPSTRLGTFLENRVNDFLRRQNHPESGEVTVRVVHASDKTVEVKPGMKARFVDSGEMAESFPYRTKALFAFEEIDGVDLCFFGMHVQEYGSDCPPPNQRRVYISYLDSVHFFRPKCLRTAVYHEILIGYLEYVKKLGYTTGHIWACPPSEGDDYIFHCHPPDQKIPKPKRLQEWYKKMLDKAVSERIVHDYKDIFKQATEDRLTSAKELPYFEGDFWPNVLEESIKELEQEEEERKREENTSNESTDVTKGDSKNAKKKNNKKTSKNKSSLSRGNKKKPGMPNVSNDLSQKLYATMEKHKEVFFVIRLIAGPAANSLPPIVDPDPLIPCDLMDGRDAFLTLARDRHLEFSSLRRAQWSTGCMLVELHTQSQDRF | soluble |
| MIKYSIRGENIEVTEAIREYVETKLSKVEKYFNEAQELDTRVNLKVYREKTAKVEVTILIDSITLRAEDVSQDMYGSIDLVVDKIERQIRKNKTKIAKKYREKIPASQVFTTEFEAEPDEEAVSQRIVRTKNVNLKPMDVEEALLQMELLGHDFFIYTDAEDNTTNVLYKREDGELGLIEAKGNLEHHHHHH | soluble |
| MTTLSMENFAQLFEESLTLHDMRVGEVITAEVVAVDSNFVTVNAGLKSESLIPAEEFKNDQGVVEVAIGDFVTVAIDALENGFGETKLSREKAKRMAAWVELEEALEAGTILSGMISGKVKGGLTVMVNGIRAFLPGSLVDVRPVKDTTPYENKQIEFKVIKLDRKRNNVVVSRRSVLEETLGEERKALLETLKEGAVIKGIVKNITDYGAFVDLGGIDGLLHITDLAWRRVKHPSEVLAVGDEVEAKVLKFDQEKNRVSLGLKQLGEDPWVGLSRRYPSGTRLFGKVTNLTDYGAFVEIEQGIEGLVHVSEMDWTNKNVHPSKVVQVGDEVEVMILEIDEDRRRISLGMKQCLANPWNEFADNFHKGDKLKGAIKSITDFGVFVGLPGGIDGLVHLSDLSWNEAGEEAVRKFKKGDEVEAVVLSIDVEKERISLGIKQLEGDPFNNFVAMNDKGALVKGTVKSVDAKGAVIALDADVEGYLRASELSRDRVEDARSVLKDGDAVEAVIVAVDRKSRNISLSIKAKDAQEDNAALKSLAVDSASAGTTNLGALLKAKLSGSNE | soluble |
| MSLDEKKLKALAVELAKGLKTEADLNSFSRMLAKLTVETVLNAELADHPGYEKNAPKTGSNTRNGYSSKTVLCDDGEIELNTPRDRENTFEPQLLKKHQTRITQMDSQILSLYAKGMTTREIVATFKEMYDANVSPSLISKVTDAVKEQVTERQNRQPDALYPIVYMDCIVVKVRQNGSVINKAVFLALGINTEGQKELLGMWLAENEGEKFWLSVLTELKTRGVQDILIACVDGLKGFPDAINSVFPQPHIQLCIIHMVRNSLKYVAWKGYKVATSGLRLRPKRRHEGHHHHHH | not soluble |
| MSLQRARCYLIGETAVVLELEPPVTLASQKRIWRLAQRLVDMPNVVEAIPGMNNITVILRNPESLALDAIERLQRWWEESEALEPESRFIEIPVVYGGAGGPDLAVVAAHCGLSEKQVVELHSSVEYVVWFLGFQPGFPYLGSLPEQLHTPRRAEPRLLVPAGSVGIGGPQTGVYPLATPGGWQLIGHTSLSLFDPARDEPILLRPGDSVRFVPQKEGVCEGHHHHHH | not soluble |
| MSLSRCLPLGQNARVIIIPARLAHAASTQAAAATDDAPNFFQKLAHRFQGVPLKGEAHAPKSMFEDCNKEWSAPEPLPAIPKDFKEHPDRDLVNYPYPARPMYPPKSRLLMMPDSWFTPFQKVTGVSGPYLFFGGLFAFLVNKELWVFEEQGHMTVGWILFYLLVTRTAGYKIDQGLYNGYQERVNFFKGLIQEDLKEAVEFKKTSAKQTESLNSIKESYPTALKESMALQLEATYRKNVQSVATELKRRIDYLKETEESKARVEREQLLKLINSEVDKEFSDRSFKDKYLQNAIQQLKGLNVQL | not soluble |
| MGSDKIHHHHHHMYCGVPEEDPDKLVALILSGGQSSRMGTDKGSMELNGERLVERAGNLCASAGLPFYYSINASQNQQYLNFLPADALIVDTLDDIKGPLAGLLSFYVKYPNTDVLLLPCDMIHLGKSILSDLVQAYETMSIGHDIIVYQYANEIIEPMPGIYTSEALRKIYWLFLSGDLTRFSLKYCIEISNSFFIPIKKEAEVLFKNINSPEDITPSK | not soluble |
| MIFPVARYALRWLRRPEDRAFSRAAMEMALRGVRKVLCVAEKNDAAKGIADLLSNGRMRRREGLSKFNKIYEFDYHLYGQNVTMVMTSVSGHLLAHDFQMQFRKWQSCNPLVLFEAEIEKYCPENFVDIKKTLERETRQCQALVIWTDCDREGENIGFEIIHVCKAVKPNLQVLRARFSEITPHAVRTACENLTEPDQRVSDAVDVRQELDLRIGAAFTRFQTLRLQRIFPEVLAEQLISYGSCQFPTLGFVVERFKAIQAFVPEIFHRIKVTHDHKDGIVEFNWKRHRLFNHTACLVLYQLCVEDPMATVVEVRSKPKSKWRPQALDTVELEKLASRKLRINAKETMRIAEKLYTQGYISYPRTETNIFPRDLNLTVLVEQQTPDPRWGAFAQSILERGGPTPRNGNKSDQAHPPIHPTKYTNNLQGDEQRLYEFIVRHFLACCSQDAQGQETTVEIDIAQERFVAHGLMILARNYLDVYPYDHWSDKILPVYEQGSHFQPSTVEMVDGETSPPKLLTEADLIALMEKHGIGTDATHAEHIETIKARMYVGLTPDKRFLPGHLGMGLVEGYDSMGYEMSKPDLRAELEADLKLICDGKKDKFVVLRQQVQKYKQVFIEAVAKAKKLDEALAQYFGNGTELAQQEDIYPAMPEPIRKCPQCNKDMVLKTKKNGGFYLSCMGFPECRSAVWLPDSVLEASRDSSVCPVCQPHPVYRLKLKFKRGSLPPTMPLEFVCCIGGCDDTLREILDLRFSGGPPRASQPSGRLQANQSLNRMDNSQHPQPADSRQTGSSKALAQTLPPPTAAGESNSVTCNCGQEAVLLTVRKEGPNRGRQFFKCNGGSCNFFLWADSPNPGAGGPPALAYRPLGASLGCPPGPGIHLGGFGNPGDGSGSGTSCLCSQPSVTRTVQKDGPNKGRQFHTCAKPREQQCGFFQWVDENTAPGTSGAPSWTGDRGRTLESEARSKRPRASSSDMGSTAKKPRKCSLCHQPGHTRPFCPQNR | soluble |
| MGSDKIHHHHHHMTSREQIIELIKSGEFTQAELARQMGVNSGALSSYLGGKYKGNVENIENVLASWLSTRDKKEKVFVEAPHFIEIPTADKVFKALDMARFCKTIVPIFGASGVGKTKACQEYKKRYQNVWMITISPSRASLNAFLYELALELGIKDAPRRKDRLSRLILDNLKDTEGLVIVDESDHLTYDSIEELRYLQEKAEVGFALIGNNKVYTKMQGGANQAHEYARLWNRIGKKCQIKASKKGDIKAVAQAWGLDVQDKDLMTVLYDIGGKAGGLRALTQYLRLAGMTAKGQGTGITLDLILTAQAEMTGSE | not soluble |
| MLGSLAAEKRSVFQTSCCVRYKGCMLGVGPTVWGVVWGLGCTVEARGLRKRFGGRTAVAGVSFSVGDGERACIMGPNGSGKTTLLRMVSGVLRPSGGSVRVCGYDVWGDGWREARGLIGFAPQDPPMARRMTGAEYITVVGGLLGLSPGVARREARRVLEMLGFEDVLGRVVARLSGGQRRALGIALALASNPEVVVLDEPGSGLDVRARESLWASLRKAFKGRTVLFSSHDPQEAEAESDRVLIMHRGRLAAWGKPRELIQRYAPKPRVRVWADRAPDGLEPVHTGPGFSDYLIEAPGDVARIASAYSGAGILVERIEVLKPSLREVFFAVTGEEMD | soluble |
| MIEQPDSKSAKPLYKQLEAALKEAIARGEYKPGQQIPTENELSVRWQVSRVTVRKALDALTRENLLTRVSGKGTFVSGEKFQRSMTGIMSFSELCQSQGRRPGSRTIKSVFESVDDETKALLNMNDGEKAVVIERIRYADDVAVSLETVHLPPRFAFLLDEDLNNHSLYECLREKYHLWFTHSRKMIELVYASFEVAHYLGVNEGYPLILIKSEMIDNKGELSCVSQQLIVGDKIRFTV | not soluble |
